{"source": "patent US6713057B1", "about": "“Compositions and methods for modulating serum cholesterol” (The Johns Hopkins University, priority 1999, dated 2004)", "molecules": {"B1": {"name": "EGF: human recombinant EGF from Upstate Biotechnology (protein, UniProt P01133 23-1207, looked up)", "Pro-epidermal growth factor": "PQHWSCPEGTLAGNGNSTCVGPAPFLIFSHGNSIFRIDTEGTNYEQLVVDAGVSVIMDFHYNEKRIYWVDLERQLLQRVFLNGSRQERVCNIEKNVSGMAINWINEEVIWSNQQEGIITVTDMKGNNSHILLSALKYPANVAVDPVERFIFWSSEVAGSLYRADLDGVGVKALLETSEKITAVSLDVLDKRLFWIQYNREGSNSLICSCDYDGGSVHISKHPTQHNLFAMSLFGDRIFYSTWKMKTIWIANKHTGKDMVRINLHSSFVPLGELKVVHPLAQPKAEDDTWEPEQKLCKLRKGNCSSTVCGQDLQSHLCMCAEGYALSRDRKYCEDVNECAFWNHGCTLGCKNTPGSYYCTCPVGFVLLPDGKRCHQLVSCPRNVSECSHDCVLTSEGPLCFCPEGSVLERDGKTCSGCSSPDNGGCSQLCVPLSPVSWECDCFPGYDLQLDEKSCAASGPQPFLLFANSQDIRHMHFDGTDYGTLLSQQMGMVYALDHDPVENKIYFAHTALKWIERANMDGSQRERLIEEGVDVPEGLAVDWIGRRFYWTDRGKSLIGRSDLNGKRSKIITKENISQPRGIAVHPMAKRLFWTDTGINPRIESSSLQGLGRLVIASSDLIWPSGITIDFLTDKLYWCDAKQSVIEMANLDGSKRRRLTQNDVGHPFAVAVFEDYVWFSDWAMPSVMRVNKRTGKDRVRLQGSMLKPSSLVVVHPLAKPGADPCLYQNGGCEHICKKRLGTAWCSCREGFMKASDGKTCLALDGHQLLAGGEVDLKNQVTPLDILSKTRVSEDNITESQHMLVAEIMVSDQDDCAPVGCSMYARCISEGEDATCQCLKGFAGDGKLCSDIDECEMGVPVCPPASSKCINTEGGYVCRCSEGYQGDGIHCLDIDECQLGEHSCGENASCTNTEGGYTCMCAGRLSEPGLICPDSTPPPHLREDDHHYSVRNSDSECPLSHDGYCLHDGVCMYIEALDKYACNCVVGYIGERCQYRDLKWWELRHAGHGQQQKVIVVAVCVVVLVMLLLLSLWGAHYYRTQKLLSKNPKNPYEESSRDVRSRRPADTEDGMSSCPQPWFVVIKEHQDLKNGGQPVAGEDGQAADGSMQPTSWRQEPQLCGMGTEQGCWIPVSSDKGSCPQVMERSFHMPSYGTQTLEGGVEKPHSLLSANPLWQQRALDPPHQMELTQ", "modifications": "Pro-epidermal growth factor", "notes": "human recombinant EGF from Upstate Biotechnology"}}, "system": "SREBP-1", "experiment": "SREBP-1 proteolysis (maturation) assay, Western immunoblot of nuclear fractions, HH-25 hepatocytes", "format": "cell-based, human", "conditions": "HH-25 hepatocytes, sterol independent", "protocol": "FIGS. 2A-2C illustrate effects of TNF-α sphingomyelinase and C2-ceramide on the kinetics of SREBP-1 maturation—FIGS. 2A-2C is explained in more detail as follows: Cells were maintained in media supplemented with 1 μg/ml 25-hydroxy cholesterol and 15 μg/ml cholesterol for 24 hours before the experiment. The cells were treated for the indicated time as described in materials and methods. The cells were then harvested in PBS, pelleted and frozen. Lysis and nuclear fractionation were performed as described. Nuclear fractions (50 μg of protein) were electrophoresed on a 7.5% polyacrylamide gel and transferred to a PVDF membrane. Western blotting was performed as described. Band intensity was quantified via densitometry. Error bars represent ±one standard deviation from the mean. 2A) The kinetics of SREBP maturation as measured by the increase in mature SREBP-1 are plotted. Fold increase was calculated by comparing each time point to the corresponding control value (TNF-α is represented by stippled bars, bacterial sphingomyelinase is represented by light gray bars and C2-ceramide by the dark bars.) 2B) Cells were treated with TNF-α (10 ng/ml) and prepared as described above. The bands corresponding to the precursor and mature forms of SREBP-1 were quantified and their ratio plotted. 2C) Representative Western blots from which numerical data was derived. […]", "data": [{"molecule": "B1", "values": [{"measurement": "induction of SREBP-1 maturation (increase in mature SREBP-1), in words", "value": "could not be recapitulated"}]}]}
